# From US20090232823A1 (Eli Lilly, published 2009)
# Legend:
# [1] = biological target: recombinant human TYRP1 (tyrosinase-related protein-1) (human) (UniProt P17643); experiment: SPR (Biacore), TYRP1 immobilized; summary table
# [2] = biological target: recombinant human TYRP1 (tyrosinase-related protein-1) (human) (UniProt P17643); experiment: ELISA, plate coated with recombinant human TYRP1, antibody titrated
# [3] = biological target: recombinant human TYRP1 (tyrosinase-related protein-1) (human) (UniProt P17643); experiment: ELISA on plate-coated recombinant human TYRP1 (column headed 'Competition ELISA'); summary table
# [4] = biological target: recombinant human TYRP1 (tyrosinase-related protein-1) (human) (UniProt P17643); experiment: SPR (Biacore), TYRP1 immobilized on CM5 chip, antibody injected, 20-25 °C
# [5] = biological target: native human TYRP1 expressed on human melanoma cell lines (624mel, SKmel28, SKmel23) (human, UniProt P17643 25-537); experiment: cell-based or functional assay
molecule,measurement,setting,value
"TA99, murine monoclonal antibody (IgG2a) specific for human and murine TYRP1",Kd,[1],1.7 nM
same,EC50,[2],0.4 nM
same,EC50,[3],0.4 nM
same,Kd,[4],1.7 nM
same,koff,[4],0.00016 s⁻¹
same,kon,[4],95000 M⁻¹ s⁻¹
"CTA99, chimeric antibody with a human constant region IgG1 (antibody, V domains shown) VH: EVQLQQSGAELVRPGALVKLSCKTSGFNIKDYFLHWVRQRPDQGLEWIGWINPDNGNTVYDPKFQGTASLTADTSSNTVYLQLSGLTSEDTAVYFCTRRDYTYEKAALDYWGQGASVIVFS VL: AIQMSQSPASLSASVGETVTITCRASGNIYNYLAWYQQKQGKSPHLLVYDAKTLADGVPSRFSGSGSGTQYSLKISSLQTEDSGNYYCQHFWSLPFTFGSGTKLEIKR",Human ADCC (%),[5],48%
